In the experiment the target is hBAFF-R-GFP fusion protein on mouse fibroblast L cells (clone D2C) (human) (UniProt Q96RJ3). In words: flow cytometry on BAFF-R-expressing D2C L cells, 0.5 µg recombinant BAFF/10^6 cells, anti-BAFF-PE; unstained cells 0.0217; in the signal plot the 0 ng trace peaks between 10^2 and 10^3, the unstained one at about 10^2.

This passage reports gate number, percent of cells above the BAFF-PE line (no % sign printed) results from patent US20200190204A1.

On to “recombinant BAFF ligand (from UniProt Q9Y275 134-285)”, for which the gate number, percent of cells above the BAFF-PE line (no % sign printed) worked out at 59.6%.
